From article PMC9368931, “Involvement of a Cluster of Basic Amino Acids in Phosphorylation-Dependent Functional Repression of the Ceramide Transport Protein CERT” (International Journal of Molecular Sciences, 2022)
Values joined by “and” are separate entries in the source; they are usually repeats but may differ in a detail not shown here. Equal values may be shown once.

B1: Recombinant human CERT S132A/13A purified from Sf21 cells (natural protein, UniProt Q9Y5P4-2 1-598, looked up)
chain: MSDNQSWNSSGSEEDPETESGPPVERCGVLSKWTNYIHGWQDRWVVLKNNALSYYKSEDETEYGCRGSICLSKAVITPHDFDECRFDISVNDSVWYLRAQDPDHRQQWIDAIEQHKTESGYGSESSLRRHGAMVSLVSGASGYSATSTSSFKKGHSLREKLAEMETFRDILCRQVDTLQKYFDACADAVSKDELQRDKVVEDDEDDFPTTRSDGDFLHSTNGNKEKLFPHVTPKGINGIDFKGEAITFKATTAGILATLSHCIELMVAAEDSWQAALDAETEAAAATEEAYANAMTELAAASHFGGPDYEEGPNSLINEEEFFDAVEAALDRQDKIEEQSQSEKVRLHWPTSLPSGDAFSSVGTHRFVQKVEEMVQNHMTYSLQDVGGDANWQLVVEEGEMKVYRREVEENGIVLDPLKATHAVKGVTGHEVCNYFWNVDVRNDWETTIENFHVVETLADNAIIIYQTHKRVWPASQRDVLYLSVIRKIPALTENDPETWIVCNFSVDHDSAPLNNRCVRAKINVAMICQTLVSPPEGNQEISRDNILCKITYVANVNPGGWAPASVLRAVAKREYPKFLKRFTSYVQEKTAGKPILF
notes: Ceramide transport protein CERT (GPBPΔ26), human, printed length 598 amino acids; The template plasmid is named pBS/nHAcFL-CERT, which may mean a further C-terminal FLAG tag; also called S132/13A; not shown: HA, N-terminal, kept
B2: Recombinant human CERT S132A purified from Sf21 cells (natural protein, UniProt Q9Y5P4-2 1-598, looked up)
chain: MSDNQSWNSSGSEEDPETESGPPVERCGVLSKWTNYIHGWQDRWVVLKNNALSYYKSEDETEYGCRGSICLSKAVITPHDFDECRFDISVNDSVWYLRAQDPDHRQQWIDAIEQHKTESGYGSESSLRRHGAMVSLVSGASGYSATSTSSFKKGHSLREKLAEMETFRDILCRQVDTLQKYFDACADAVSKDELQRDKVVEDDEDDFPTTRSDGDFLHSTNGNKEKLFPHVTPKGINGIDFKGEAITFKATTAGILATLSHCIELMVKREDSWQKRLDKETEKKRRTEEAYKNAMTELKKKSHFGGPDYEEGPNSLINEEEFFDAVEAALDRQDKIEEQSQSEKVRLHWPTSLPSGDAFSSVGTHRFVQKVEEMVQNHMTYSLQDVGGDANWQLVVEEGEMKVYRREVEENGIVLDPLKATHAVKGVTGHEVCNYFWNVDVRNDWETTIENFHVVETLADNAIIIYQTHKRVWPASQRDVLYLSVIRKIPALTENDPETWIVCNFSVDHDSAPLNNRCVRAKINVAMICQTLVSPPEGNQEISRDNILCKITYVANVNPGGWAPASVLRAVAKREYPKFLKRFTSYVQEKTAGKPILF
notes: Ceramide transport protein CERT (GPBPΔ26), human, printed length 598 amino acids; The template plasmid is named pBS/nHAcFL-CERT, which may mean a further C-terminal FLAG tag; Mainly a homo-trimer by cross-linking and blue native PAGE; not shown: HA, N-terminal, kept

Tests used:
[1] = molecular target: the molecule itself; assay: cross-linking; purified CERT (10.8 ng in 30 μL of 50 mM HEPES-NaOH pH 7.4) with EGS (0.1-1.6 mM) on ice for 2 h; SDS-PAGE (6%) and anti-HA western blot
[2] = molecular target: the molecule itself; assay: native gel or EMSA; blue native PAGE of purified CERT (10 ng), 1% digitonin, 0.25% CBB G-250, 4-16% Bis-Tris gel; anti-HA western blot

Protein	stoichiometry N [1]	stoichiometry N [2]
B1	2 and 3	
B2		3
